The values below come from PMC3540032, “Comprehensive Analysis and Identification of the Human STIM1 Domains for Structural and Functional Studies” (PLoS ONE, 2013).

The experiment has as its target T1, hSTIM1 S340-M490 (CAD-containing construct) (human, UniProt Q13586 340-490).
T1 construct: also called the CAD; source: E. coli Rosetta (DE3), purified (IMAC, SEC, IEX, low salt SEC)
Nature of the experiment: SPR; Biacore T200; Orai1 peptide immobilised on a CM5 chip by ligand thiol coupling at 1000 RU; analytes injected at 10 µM; HBS-EP buffer (20 mM HEPES, pH 7.4, 150 mM NaCl, 3.4 mM EDTA, 0.005% Polysorbate 20), 30 µL/min. The following applies: both partners purified.

T1 sequence (Q13586 340-490): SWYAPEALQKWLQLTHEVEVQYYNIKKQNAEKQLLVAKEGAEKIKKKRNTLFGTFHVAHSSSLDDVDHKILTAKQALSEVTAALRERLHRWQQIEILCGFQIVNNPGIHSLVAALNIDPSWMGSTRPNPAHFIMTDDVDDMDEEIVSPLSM

B1: Orai1 C-terminal peptide with an extra N-terminal Cys (peptide)
peptide: CRSLVSHKTDRQFQELNELAEFARLQDQLDHRGDHPLTPGSHYA
notes: extra Cys added to the N-terminus for immobilisation via thiol coupling; The added Cys is coupled to the CM5 chip by thiol coupling, which leaves the C-terminal end free; also called Orai1 C-terminus; Orai1 C-terminal domain; source: synthetic peptide (Peptide 2.0), purified by SEC (Superdex Peptide)
Regarding B1, the binding result was “binds”.
